Tests used:
[1] = molecular target: T1, NRSYM1(531-976)-myc (Lotus japonicus (WT, MG-20?), UniProt A0A2Z5V8A6 531-976); test: EMSA; 20 mM HEPES-KOH pH 7.9, 50 mM KCl, 1 mM DTT, 4% glycerol, 0.1% Triton X-100, BSA (2 mg) and salmon sperm DNA (1 mg) as printed, 10 ul, 30 min room temperature; conditions: protein: ivt, tags: 3xMyc (cds cloned downstream of the tag, N-terminal), 5' overhang 4 nt (ggtg) on both strands as printed
[2] = molecular target: T1, NRSYM1(531-976)-myc; test: competition; unlabeled competitor 20x/100x vs CLE-RS2-1 probe; 20 mM HEPES-KOH pH 7.9, 50 mM KCl, 1 mM DTT, 4% glycerol, 0.1% Triton X-100, BSA (2 mg) and salmon sperm DNA (1 mg) as printed, 10 ul, 30 min room temperature; conditions: protein: ivt; tags: 3xMyc (cds cloned downstream of the tag, N-terminal); label: biotin (probe); 5' overhang 4 nt (ggtg) on both strands as printed

T1 sequence (A0A2Z5V8A6 entry or part of it): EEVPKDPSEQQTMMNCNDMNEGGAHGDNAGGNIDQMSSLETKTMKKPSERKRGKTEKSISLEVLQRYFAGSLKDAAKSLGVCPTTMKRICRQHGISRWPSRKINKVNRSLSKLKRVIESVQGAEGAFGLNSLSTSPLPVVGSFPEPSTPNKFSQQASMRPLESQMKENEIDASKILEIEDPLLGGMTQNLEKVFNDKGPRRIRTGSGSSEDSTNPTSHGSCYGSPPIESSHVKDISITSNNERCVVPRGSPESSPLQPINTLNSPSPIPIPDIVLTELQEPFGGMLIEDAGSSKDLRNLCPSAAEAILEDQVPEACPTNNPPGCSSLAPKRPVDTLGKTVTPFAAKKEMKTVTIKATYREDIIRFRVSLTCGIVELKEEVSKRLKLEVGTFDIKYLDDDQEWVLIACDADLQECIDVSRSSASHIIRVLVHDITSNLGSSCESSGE

B1: CLE-RS2-4 (dsDNA)
DNA 1: GGTGATATATTCATGATCTTTAATTCACTTGAAGAGTTAGTGATTGAT
DNA 2: GGTGATCAATCACTAACTCTTCAAGTGAATTAAAGATCATGAATATAT
[1]; label: biotin (probe)
  binding result: binds

B2: LjNIR1-3 (dsDNA)
DNA 1: GGTGACACAAACACGACCCTTTGTCACAACCAAAGGTCCATTGTAGCA
DNA 2: GGTGTGCTACAATGGACCTTTGGTTGTGACAAAGGGTCGTGTTTGTGT
[1]; label: biotin (probe)
  binding result: binds

B3: LjNIR1-3m1 (dsDNA)
DNA 1: GGTGACACAAACACGAGGGAATGTCACAACCAAAGGTCCATTGTAGCA
DNA 2: GGTGTGCTACAATGGACCTTTGGTTGTGACATTCCCTCGTGTTTGTGT
[1]; label: biotin
  binding result: no binding

B4: CLE-RS2-1 (dsDNA)
DNA 1: GGTGTGTGAGTTCTGACCCTTAAGCCTTGGAAAGGACAGTCATGCAA
DNA 2: GGTGTTGCATGACTGTCCTTTCCAAGGCTTAAGGGTCAGAACTCACA
[1]; label: biotin (probe)
  binding result: binds

B5: CLE-RS2-1m (dsDNA)
DNA 1: GGTGTGTGAGTTCTGAGGGAAAAGCCTTGGAAAGGACAGTCATGCAA
DNA 2: GGTGTTGCATGACTGTCCTTTCCAAGGCTTTTCCCTCAGAACTCACA
[2]
  binding result: no binding

B6: CLE-RS2-3 (dsDNA)
DNA 1: GGTGGTATCAAACTGACCCCTAGTTTCAGTCCAAAGCCACCTTGATTG
DNA 2: GGTGCAATCAAGGTGGCTTTGGACTGAAACTAGGGGTCAGTTTGATAC
[1]; label: biotin (probe)
  binding result: binds

Reference: paper PMC5799372, “A NIN-LIKE PROTEIN mediates nitrate-induced control of root nodule symbiosis in Lotus japonicus”
